This note sets out measurements from article PMC3182218, “Obesity Risk Gene TMEM18 Encodes a Sequence-Specific DNA-Binding Protein”.

This data set concerns the target TMEM18 (UniProt Q96B42 1-140). Description: EMSA; 400 nM probe; EMSA: 10 mM Tris pH 7.4, 50 mM KCl, 1 mM DTT, 0.05% DDM, 30 min, RT; 4-20% TBE gel in 0.5x TBE. The conditions noted are these: protein: recombinant, tags: N-terminal Flag-His8, blunt. (Mobility shift assays separate free from complexed probe on a gel.)

TMEM18, sequence (Q96B42 whole entry): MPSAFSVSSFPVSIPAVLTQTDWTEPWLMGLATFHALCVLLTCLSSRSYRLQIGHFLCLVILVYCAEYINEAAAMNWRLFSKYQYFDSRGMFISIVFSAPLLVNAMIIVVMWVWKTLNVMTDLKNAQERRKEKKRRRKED

B1: biotin-(GTG)8 (dsDNA)
DNA 1: GTGGTGGTGGTGGTGGTGGTGGTG
DNA 2: CACCACCACCACCACCACCACCAC
In the case of B1, the binding result (label: 5' biotin on (GTG)8 strand) is on record as “no binding”.

B2: biotin-(GCT)8 (dsDNA)
DNA 1: GCTGCTGCTGCTGCTGCTGCTGCT
DNA 2: AGCAGCAGCAGCAGCAGCAGCAGC
Consider B2, for which, under “label: 5' biotin on (GCT)8 strand”, the binding result was “binds”.
